B1: Purified Acs1 (native AMP-forming, acetyl-CoA synthetase) (Syntrophus aciditrophicus SB) (protein)
chain: MGEESILKEFYPVPERIKAKAWVKGRGEYDKLYAESIADSAAWWAKQADEILTFYKKWDKVEDFNFDIRKGPIHVKYFEGAKLNVSYNCLDRHLATKGDKVAIQWEGNEPGEQKAYTYKDLHTEVCKFANVLKKHGIKRGDRVCIYTPMVVEAAIAMLACTRIGAVHAIVFGGFSSDALAVRIQDAQAKLLVVCDGTFRGAKAVPQKKDADVALKECPTIEKVIVVRRVGDKIACDMTPGRDLWWHDEMATVDANCECEQMDAEDTLFILYTSGSTGQPKGALHTTAGYLLYAAYTSKFAFDLHDEDIHWCTADIGWVTGHSYVVYGPLALGATSIMFEGVPNYPTYSRFWQVVEKYKVTSFYTAPTAIRAIAKEGDEWLKGIDLSSLRVLSSVGEPLNPEAWQWFYEKIGNSQCPIVDTWWQTETGGHMILPLPGAIDIKPAKPALPIMGVIPTLVDDQTGEELKNMEANGALCFKTAWPGITRTIYGDHKRYEETYFEPYPGNYFSGDGALRDKDGYYRITGRIDDVINVSGHRMGTAEIEATLNAHEKVAESAVVGYPHEVKGQSIYAYITLKTGFEPSEDLKKELTQYVRTIIGPIATPEKIQWADGLPKTRSGKIMRRILKKVAANELGDLGDTSTLADPAVVDDLVKNRL
notes: native, purified from crotonate-grown pure-culture cell extracts; single band ~74 kDa on denaturing gel; untagged
B2: Recombinant Acs1 (SYN_02635 gene product) (Syntrophus aciditrophicus SB) (protein)
chain: MGEESILKEFYPVPERIKAKAWVKGRGEYDKLYAESIADSAAWWAKQADEILTFYKKWDKVEDFNFDIRKGPIHVKYFEGAKLNVSYNCLDRHLATKGDKVAIQWEGNEPGEQKAYTYKDLHTEVCKFANVLKKHGIKRGDRVCIYTPMVVEAAIAMLACTRIGAVHAIVFGGFSSDALAVRIQDAQAKLLVVCDGTFRGAKAVPQKKDADVALKECPTIEKVIVVRRVGDKIACDMTPGRDLWWHDEMATVDANCECEQMDAEDTLFILYTSGSTGQPKGALHTTAGYLLYAAYTSKFAFDLHDEDIHWCTADIGWVTGHSYVVYGPLALGATSIMFEGVPNYPTYSRFWQVVEKYKVTSFYTAPTAIRAIAKEGDEWLKGIDLSSLRVLSSVGEPLNPEAWQWFYEKIGNSQCPIVDTWWQTETGGHMILPLPGAIDIKPAKPALPIMGVIPTLVDDQTGEELKNMEANGALCFKTAWPGITRTIYGDHKRYEETYFEPYPGNYFSGDGALRDKDGYYRITGRIDDVINVSGHRMGTAEIEATLNAHEKVAESAVVGYPHEVKGQSIYAYITLKTGFEPSEDLKKELTQYVRTIIGPIATPEKIQWADGLPKTRSGKIMRRILKKVAANELGDLGDTSTLADPAVVDDLVKNRL

Tests used:
[1] = substrate: CC(C)(COP(=O)(O)OP(=O)(O)OC[C@H]1O[C@@H](n2cnc3c(N)ncnc32)[C@H](O)[C@@H]1OP(=O)(O)O)[C@@H](O)C(=O)NCCC(=O)NCCS; test: coupled enzyme assay, NAD(H) oxidation; type: biochemical, Syntrophus aciditrophicus; conditions: acetyl-CoA-forming direction (CoA limiting), 37°C
Source text: coupled enzyme assay, NAD(H) oxidation on Purified Acs1 (native AMP-forming, acetyl-CoA synthetase)

[2] = substrate: O=P(O)(O)OP(=O)(O)O; test: ATP formation coupled to hexokinase / glucose-6-phosphate dehydrogenase, NADP+ reduction; type: biochemical, Syntrophus aciditrophicus; conditions: acetate-forming direction (pyrophosphate limiting), AMP and acetyl-CoA co-substrates, 37°C, enzyme purified without ammonium sulfate fractionation
Source text: ATP formation coupled to hexokinase / glucose-6-phosphate dehydrogenase, NADP+ reduction on Purified Acs1 (native AMP-forming, acetyl-CoA synthetase)

purified protein = substrate: CC(=O)O; test: purified protein; conditions: acetyl-CoA-forming direction (acetate limiting), 37°C
[3] = substrate: CC(C)(COP(=O)(O)OP(=O)(O)OC[C@H]1O[C@@H](n2cnc3c(N)ncnc32)[C@H](O)[C@@H]1OP(=O)(O)O)[C@@H](O)C(=O)NCCC(=O)NCCS; test: coupled enzyme assay, NAD(H) oxidation; type: biochemical, Syntrophus aciditrophicus; conditions: acetyl-CoA-forming direction (CoA limiting), 37°C; remark: listed apart in the source
Source text: coupled enzyme assay, NAD(H) oxidation on Recombinant Acs1 (SYN_02635 gene product)

Row | Protein | Km [1] | Km [2] | Km (purified protein) | Km [3]
1 | B1 | 260 ± 100 µM | 250 ± 20 µM | 590 ± 200 µM | –
2 | B2 | – | – | 960 ± 20 µM | 210 ± 50 µM

From paper PMC4992975, “Pyrophosphate-Dependent ATP Formation from Acetyl Coenzyme A in Syntrophus aciditrophicus, a New Twist on ATP Formation” (mBio, 2016)
